This test addresses nAChRs on CA1 hippocampal interneurons (not stated (rat brain slices in the text, NMRI mice in the methods)).

B1: Recombinant human GST-tagged Lypd6 (LY6/PLAUR domain-containing 6), Q86Y78 23-147 (natural protein)
chain: AQSRDFTVKDIIYLHPSTTPYPGGFKCFTCEKAADNYECNRWAPDIYCPRETRYCYTQHTMEVTGNSISVTKRCVPLEECLSTGCRDSEHEGHKVCTSCCEGNICNLPLPRNETDATFATTSPIN
With B1, the attenuation of inward currents induced by the non-specific nAChR agonist DMPP (50 μM) in CA1 hippocampal interneurons in the presence of 6 μM Lypd6, whole-cell patch clamp came to 74.8% and the average reduction of inward currents induced by nicotine (100 μM) in CA1 hippocampal interneurons in the presence of 6 μM Lypd6, whole-cell patch clamp at −60 mV is 57.4%.
